In article doi:10.1101/2024.02.19.580982:
Several values for one entry are separate records, joined by “and”; a condition that tells them apart may be missing. Equal entries are not always repeated.

Key:
[1] = molecular target: α-Synuclein preformed fibrils (α-Syn PFF) (mouse) (UniProt O55042); test: SPR
[2] = molecular target: α-Synuclein preformed fibrils (α-Syn PFF) (mouse) (UniProt O55042); test: ELISA

Chain of ΔLRR hNOD2-Fc (Q9HC29 whole entry, stated change not applied, the tested form may be a part): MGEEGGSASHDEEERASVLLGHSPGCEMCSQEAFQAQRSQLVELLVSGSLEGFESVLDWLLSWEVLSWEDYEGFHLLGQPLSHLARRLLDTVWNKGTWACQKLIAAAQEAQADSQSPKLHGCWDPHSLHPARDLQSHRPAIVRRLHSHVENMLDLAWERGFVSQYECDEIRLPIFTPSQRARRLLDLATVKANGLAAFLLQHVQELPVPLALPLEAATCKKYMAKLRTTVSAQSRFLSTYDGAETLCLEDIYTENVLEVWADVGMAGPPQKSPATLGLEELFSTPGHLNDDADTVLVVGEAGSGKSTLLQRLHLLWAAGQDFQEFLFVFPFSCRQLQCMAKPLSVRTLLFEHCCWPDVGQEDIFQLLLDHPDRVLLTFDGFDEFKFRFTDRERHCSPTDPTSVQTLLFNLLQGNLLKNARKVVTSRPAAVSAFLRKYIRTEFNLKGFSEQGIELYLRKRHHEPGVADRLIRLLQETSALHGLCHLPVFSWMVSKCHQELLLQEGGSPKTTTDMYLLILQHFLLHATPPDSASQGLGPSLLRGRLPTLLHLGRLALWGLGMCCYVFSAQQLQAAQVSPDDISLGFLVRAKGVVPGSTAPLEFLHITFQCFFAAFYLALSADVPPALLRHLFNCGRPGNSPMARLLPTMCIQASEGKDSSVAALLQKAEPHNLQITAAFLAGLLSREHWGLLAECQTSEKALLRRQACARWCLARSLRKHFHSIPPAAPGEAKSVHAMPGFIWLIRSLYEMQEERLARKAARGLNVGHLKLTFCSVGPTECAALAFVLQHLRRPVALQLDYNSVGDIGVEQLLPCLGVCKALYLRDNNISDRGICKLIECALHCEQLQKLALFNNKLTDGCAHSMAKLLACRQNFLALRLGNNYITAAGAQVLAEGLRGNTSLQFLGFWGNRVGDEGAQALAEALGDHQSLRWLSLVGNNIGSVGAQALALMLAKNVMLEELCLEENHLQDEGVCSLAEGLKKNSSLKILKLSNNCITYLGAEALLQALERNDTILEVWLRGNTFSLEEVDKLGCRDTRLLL

Q: How did the Kd [1] turn out when “FL hNOD2 with the Fc-tag removed by HRV 3C protease (from UniProt Q9HC29 1-1040) (natural protein)” was run?
A: Its Kd is 807 nM and 1190 nM.

Q: “human IgG1 Fc-tagged human NOD2 full-length (FL hNOD2-Fc) (from UniProt Q9HC29 1-1040) (Fc fusion)” was tested. Which Kd [2] did it give?
A: Its Kd is 1200 nM.

Q: For “ΔLRR hNOD2-Fc (from UniProt Q9HC29 1-1040) (Fc fusion)”, which Kd [2] is on record?
A: The Kd was 2810 nM.
